Source: patent publication US20030059769, “High affinity nucleic acid ligands to lectins” (published 2003)

Legend:
[1] = target: T1, P-selectin (PS-Rg) (Homo sapiens, UniProt P16109 P16109:42-321); test: filter; streptavidin complex; details: tags: human IgG Fc fusion; chain copies: 2 (stated dimer)
[2] = target: T2, L-selectin on PBMC / lymphocytes (Homo sapiens, UniProt P14151 P14151:39-372); test: flow; half-saturation, monomer; details: hairpin
T2 sequence: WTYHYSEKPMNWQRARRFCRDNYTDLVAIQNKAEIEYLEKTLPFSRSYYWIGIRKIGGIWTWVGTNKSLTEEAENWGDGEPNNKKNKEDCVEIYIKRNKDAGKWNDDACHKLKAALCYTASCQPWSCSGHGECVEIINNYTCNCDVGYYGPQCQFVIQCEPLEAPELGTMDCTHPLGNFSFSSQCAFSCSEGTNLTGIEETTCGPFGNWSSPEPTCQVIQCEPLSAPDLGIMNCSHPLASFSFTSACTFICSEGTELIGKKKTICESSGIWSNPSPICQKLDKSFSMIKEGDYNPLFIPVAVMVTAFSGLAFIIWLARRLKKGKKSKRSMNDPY
Description: A variety of monomeric nucleic acid ligands and multivalent Complexes have been examined in flow cytometry.

[3] = target: T2, L-selectin on PBMC / lymphocytes; test: flow; half-saturation; described as LD201T4 fork dimer; details: label: fluorescein
[4] = target: T3, soluble L-selectin (Homo sapiens, UniProt P14151 P14151:39-332); test: filter; 37 C; table prints SEQ 339; details: tags: R&D Systems
T3 sequence: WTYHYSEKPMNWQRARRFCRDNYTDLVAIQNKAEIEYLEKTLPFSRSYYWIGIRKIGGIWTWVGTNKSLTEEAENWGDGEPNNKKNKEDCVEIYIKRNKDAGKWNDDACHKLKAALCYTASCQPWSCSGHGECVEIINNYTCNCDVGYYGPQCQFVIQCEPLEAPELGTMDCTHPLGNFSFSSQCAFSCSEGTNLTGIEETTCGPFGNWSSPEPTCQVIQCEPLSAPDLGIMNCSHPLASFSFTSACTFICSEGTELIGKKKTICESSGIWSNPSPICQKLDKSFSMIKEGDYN
Protocol: Unless otherwise indicated, all materials used in the 2′-F RNA SELEX against the L-selectin/IgG2 chimera, LS-Rg, were identical to those of Examples 7, paragraph A and 13, paragraph A. SHMCK-140 buffer, used for all SELEX and binding experiments, was 1 mM CaCl₂, 1 mM MgCC₂, 140 mM NaCl, 5 mM KCl. and 20 mM HEPES, pH 7.4. A soluble form of L-selectin, corresponding to the extracellular domains, was purchased from R&D Systems and used for some nitrocellulose filter binding experiments.
(§1) As described in SELEX Patent Applications, a nitrocellulose filter partitioning method was used to determine the affinity of RNA ligands for LS-Rg and for other proteins. Filter discs (nitrocellulose/cellulose acetate mixed matrix, 0.45 μm pore size, Millipore) were placed on a vacuum manifold and washed with 3 ml of SHMCK 140 buffer under vacuum. Reaction mixtures, containing ³²P labeled RNA pools and unlabeled LS-Rg, were incubated in SHMCK 140 for 10-20 min at 37° C., and then immediately washed with 3 ml SHMCK 140. The filters were air-dried and counted in a Beckman LS6500 liquid scintillation counter without fluor. Alternatively, binding studies employed 96 well micro-titer manifolds essentially as described in Example 13, paragraph E.

[5] = target: T1, P-selectin (PS-Rg); test: inhibition; sialyl-LewisX; text says about 2 nM; details: tags: human IgG Fc fusion; chain copies: 2 (stated dimer)
Protocol: The ability of evolved RNA pools or cloned ligands to inhibit the binding of PS-Rg to sialyl-Lewis^x was tested in competitive ELISA assays (C. Foxall et al., 1992, supra). For these assays, the wells of Corning (25801) 96 well microtiter plates were coated with 100 ng of a sialyl-Lewis^x/BSA conjugate, air dried overnight, washed with 300 μl of PBS(−) and then blocked with 1% BSA in HSMC for 60 min at room temperature. RNA ligands were incubated with PS-Rg in HSMC/1% BSA at room temperature for 15 min. After removal of the blocking solution, 50 μl of PS-Rg (10 nM) or a PS-Rg (10 nM)/RNA ligand mix was added to the coated, blocked wells and incubated at room temperature for 60 minutes. The binding solution was removed, wells were washed with 300 μl of PBS(−) and then probed with HRP conjugated anti-human IgG, at room temperature to quantitate PS-Rg binding. After a 30 minute incubation at room temperature in the dark with OPD peroxidase substrate (Sigma P9187), the extent of PS-Rg binding and percent inhibition was determined from the OD₄₅₀.

[6] = target: T4, L-selectin (LS-Rg) (Homo sapiens, UniProt P14151 P14151:39-332); test: filter; affinity reduction versus full length LF1807; called LF1807T5 in Table 16; details: tags: human IgG2 Fc fusion; chain copies: 2 (stated dimer)
T4 sequence: T3 sequence
Protocol: as §1
Predictions of minimal high affinity sequences for family 1 ligands can be made and serve as a partial test of the postulated secondary structure.

[7] = target: T2, L-selectin on PBMC / lymphocytes; test: flow; half-saturation; described as LD201T4 dumbell dimer; details: label: fluorescein
[8] = target: T1, P-selectin (PS-Rg); test: filter; details: tags: human IgG Fc fusion; chain copies: 2 (stated dimer)
[9] = target: T4, L-selectin (LS-Rg); test: filter; room temperature; repeat of Table 13 (57 pM); details: tags: human IgG2 Fc fusion; chain copies: 2 (stated dimer)
Protocol: As described in SELEX Patent Applications and in Example 7, paragraph C, a nitrocellulose filter partitioning method was used to determine the affinity of ssDNA ligands for LS-Rg and for other proteins. For these experiments a Gibco BRL 96 well manifold was substituted for the 12 well Millipore manifold used in Example 7 and radioactivity was determined with a Fujix BAS100 phosphorimager. Bindin, data were analyzed as described in Example 7, paragraph C.

[10] = target: T1, P-selectin (PS-Rg); test: inhibition; sialyl-LewisX; details: tags: human IgG Fc fusion; chain copies: 2 (stated dimer)
[11] = target: T1, P-selectin (PS-Rg); test: filter; Table 21 gives 63 pM; details: tags: human IgG Fc fusion; chain copies: 2 (stated dimer)

T1 sequence (P16109 42-321, one chain of several): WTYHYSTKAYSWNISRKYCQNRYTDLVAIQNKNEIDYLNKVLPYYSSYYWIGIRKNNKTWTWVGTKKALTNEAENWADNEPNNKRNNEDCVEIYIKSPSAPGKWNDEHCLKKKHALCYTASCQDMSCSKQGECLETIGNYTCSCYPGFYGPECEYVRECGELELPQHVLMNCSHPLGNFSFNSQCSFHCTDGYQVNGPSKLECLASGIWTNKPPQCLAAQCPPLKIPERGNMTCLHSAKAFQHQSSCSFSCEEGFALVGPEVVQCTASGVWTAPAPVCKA

Binder: CUCAACGAGCCAGGAACAUCGACGUCAGCAAACGCGAG (ssRNA, 2'-F C and U, biotin bound to streptavidin) [PF377s1B:SA]
- Kd [1]: 0.03 nM

Binder: CCAGTACAAGGTGCTAAACGTAATGG (ssDNA) [LD201T4]
- EC50 [2]: 20 nM

B1: NX303 fork dimer (ssDNA)
DNA: TCCAGTACAAGGTGCTAAACGTAATGGTT
modifications: two copies on forked 20 kDa PEG, 5' amino C6 dT, 3'-3' terminal [1 = 5' amino modifier C6 dT; 29 = 3'-3' terminal dT; two identical copies on forked 20 kDa PEG (PEG left out)]
- EC50 [3]: 0.6 nM

B2: LF1520 (ssRNA)
RNA: GGGAGGACGAUGCGGAUCGAUUUCAUGCGUUUUUCGAGUGACGAUCAGACGACUCGCCCGA
modifications: 2'-F C and U
- Kd [4]: 0.5 nM

B3: PF377 (ssRNA)
RNA: GGGAGACAAGAAUAAACGCUCAACGAGCCAGGAACAUCGACGUCAGCAAACGCGAGCGCAACCAGUAACACCUUCGACAGGAGGCUCACAACAGGC
modifications: 2'-F C and U
- IC50 [5]: 3 nM

Binder: GGAGUCUUAGGCAGCGCGUUUUCGAGCUACUCC (ssRNA, 2'-F C and U) [LF1807T4]
- binding signal [6]: ~3 fold

B4: NX303 dumbell dimer (ssDNA)
DNA: TCCAGTACAAGGTGCTAAACGTAATGGTT
modifications: two copies on PEG 3400, 5' amino C6 dT, 3'-3' terminal [1 = 5' amino modifier C6 dT; 29 = 3'-3' terminal dT; two identical copies on PEG 3400 (PEG left out)]
- EC50 [7]: 0.1 nM

Binder: CUCAACGAGUUCACAUGGGAGCAAUCUCCGAAUAAACAACACGCGAG (ssRNA, 2'-F C and U) [PF424s1]
- Kd [8]: 0.178 nM

B5: LD230 (ssDNA)
DNA: CTACCTACGATCTGACTAGCTGCACACCTGAGGGTTACAAGGCGCTAGACGTAACCTCTCGCTTACTCTCATGTAGTTCC
- Kd [9]: 0.044 nM

Binder: CUCAACGAACCACGGGGAAAUCCACCAGUAACACGCGAG (ssRNA, 2'-F C and U) [PF398s1]
- IC50 [10]: 2 nM
- Kd [11]: 0.178 nM
